Reference: paper PMC4579573, “Higher -Order Assembly of BRCC36–KIAA0157 Is Required for DUB Activity and Biological Function” (Molecular cell, 2015)

B1: C. floridanus BRISC complex (complex)
chain 1: MDDSSLQKVELQTDVYMVCLQHALSTENFEVMGLLIGNFACGIAKISAVIILRRLDKKKDRVEISSEQLLKAAAEAERLTVELNRPMRVLGWYHSHPHITVCPSHVDVRTQATYQTMDHSFVGLIFSVFSEGKESKEHEIFLNCFQSDNGEATEIPLEIVHTPDISDRCLRTMTDLSKILVQEEEDMAEACKDHPDVLASIHNNAVRTRALIHITDIITKPLVQTFEKRIALNKLRATHLQRQLQELQKMCNG
chain 2: MADSDLLVTISGAALSLLFFENVRSVGNQMGFLLGEALEFIVKTYTDSDNQVETVKIHINVEAIVTCPLADLLHDSTNHINKEKLKDFVRDKSKQVIGWFCFRRNTTNLTLTLKDKLLHKQFASHFSGVNGCKEDFFLTCLLNASTSETSGTHKFRHVFLRHNKRGMFEPISLKINNLGDDASRHDGSDYKPTPVRKSTRTPDSFTKLIESLNLDVARIDGLDSAMLIQKAAEHHLMSLIPKVCESDLEVAELEKQVHELKIKIATQQLAKRLKINGENCDRISKASKDNCFSEKIDSSKKNEVRIGDDACLQREHIPSCTQSVGPNNRTVCRNTAACIAKSAEKSRRAGRSNLQESGNQQQETQNFFTNSRRSIPEIATESICQEGSEISMGRGRGSGRGSHEFTPGMKKIRRTPGTSHMHSSRERSTTPPEQDFSDAECPISSPVLRSYSQVTKKTNLDKCNSMAPLDI
chain 3: MLNQQHPLLSTIDSYIEPLLKRVLQTKRLGVCCGLIKLDSVSSSCNKSKNDCFKLSIPYAGEHLVWSVLFDSQYPEMGPDFIFNDQSFLADPDINTLSTWIPSLTKWNPNDIDALLNVLSELLLYYKEHQLHLLGKQGDRLQFEYSTLVGETEISREDIEVIMLPLGTKPTEARFLIRIVMDYSRLPPRINKSQNDEAMLIIMFYGPDWNRIIPQLYLSKTLEDIFGGPESLHIPPFPSSKYLMDYVPEVKKFIDEKIHNVVQSFESRKSFITVLIVSQRGSILEYDAIEFNWISMLLEHRDFHFLIHFHLPSTFPKEKPQITLQSVYHMTSQGTLYKEVLDDTPYSPRWQIILMVDKLLTYIMENAVQKFQANSMKNRF
B2: CfBRCC36 (enzyme, C. floridanus, UniProt E2AXC7 1-253, looked up)
chain: MDDSSLQKVELQTDVYMVCLQHALSTENFEVMGLLIGNFACGIAKISAVIILRRLDKKKDRVEISSEQLLKAAAEAERLTVELNRPMRVLGWYHSHPHITVCPSHVDVRTQATYQTMDHSFVGLIFSVFSEGKESKEHEIFLNCFQSDNGEATEIPLEIVHTPDISDRCLRTMTDLSKILVQEEEDMAEACKDHPDVLASIHNNAVRTRALIHITDIITKPLVQTFEKRIALNKLRATHLQRQLQELQKMCNG
notes: BRCC36 of Camponotus floridanus, residues 1-253; The crystal of PDB 5CW4 held seleno-methionine protein; also called C. floridanus BRCC36; B36; source: insect cells (MultiBac expression system), co-expressed with its partners, purified
B3: zebrafish BRISC complex (complex)
chain 1: MAVNAVHLESDAFLVCMNHALSTEKEEVMGLCIGEVDTNRIVHIHSVIILRRSDKRKDRVEISPEQLSAASTEAERLAEMTGRPMRVVGWYHSHPHITVWPSHVDVRTQAMYQMMDQGFVGLIFSCFIEDKNTKTGRVLYTCFQSVQAQKGSEYERIEIPIHVVPHEAIGKVCLESAVELPRILCQEEQDTYRRIHSLTHLDPITKIHNGSVFTKNLCSQMSAISGPLLQWLEDRLEQNKQSIITLQKEKELLTQELAAL
chain 2: not shown
chain 3: MNSLSPELALSRISPELRPLLCSIVRNGRVGLDSSSCLRITDLKSGCTSLMPGPCCDRFKLHIPYAGETLKWDIIFNARDPELPPDFIFGEDADFLPEPSELPNLVSWDSGKPECLLLLVKEMLQQYHQYQCQRLRDSSRLLFEYDSLLEDPNYGRNMEIYAGRKNSWTGEFSARFLLKLPVDFSNIPIYLLKDTALDPGEDVALLSVSFEDAEATQVFPKLYLSPSIEHALGGSSALHIPAFPSGGCLIDYVPQVCQLLTNKVQYVIQGYHKRREYIAAFLSHFGMGVVEYDAVGFTKLTLLLMWKDFCFLVHVDLPLYFPRDQPTLTFQSIYHFTSSGQLYSQVQKSYPYSPRWDGNEMAKRAKAYFKSFIPQFQEGAFANGKL
chain 4: METTEPGQADGEERMMDLRPRTRSNPEGAEDRRSSTGSLNSSLPSAPQPAVGSRVEGEGEAASSDSPPVSATAIAATASVPVAAVGNTTTTNTASLPAMSPAVKERPKPSQPTMPTQIPPSAELHLRAPRVNCPEKVIICLDLSEEMSLQKLESINGSKTNALNISQKMIEMFVRTKHKIDKRHEFALVVVNDDAMWLSGFTSDPRELCSCLYDLETNVCESFNLEDLFNVILQKIELPQMENIQTIPPPFVVRTLLVFSRHAGMLQFNPSDAVKKMLQSPYFFFDVVFLHNGTEEQTEDTSWKDVYASFCELDTKGMCYRFEVSLCGPAIELHNCMAKLLCHPLQRPFQSHASYSLLEDEDTLENEATV
B4: Dr BRCC36–KIAA0157 binary complex (complex)
chain 1: MAVNAVHLESDAFLVCMNHALSTEKEEVMGLCIGEVDTNRIVHIHSVIILRRSDKRKDRVEISPEQLSAASTEAERLAEMTGRPMRVVGWYHSHPHITVWPSHVDVRTQAMYQMMDQGFVGLIFSCFIEDKNTKTGRVLYTCFQSVQAQKGSEYERIEIPIHVVPHEAIGKVCLESAVELPRILCQEEQDTYRRIHSLTHLDPITKIHNGSVFTKNLCSQMSAISGPLLQWLEDRLEQNKQSIITLQKEKELLTQELAAL
chain 2: not shown

Experiments:
[1] = target: the molecule itself; experiment: SEC-MALS; complexes and subcomplexes purified from insect cells; size exclusion chromatography coupled to multi-angle light scattering (Figures S1B-E and S8E-G)
[2] = target: the molecule itself; experiment: crystal structure; CfBRCC36–KIAA0157ΔC, seleno-methionine-SAD, two heterodimers in the asymmetric unit, 2.55 Å

Protein | stoichiometry N [1] | binding result [2]
B1 | 2 | –
B2 | – | binds
B3 | 2 | –
B4 | 2 | –
